Results published in the supplement of paper PMC7125110.
± gives the standard error. Variants at the floor of the assay were thinned out.

B1: glmS ribozyme (parent)
chain: AUAAAAGCGCCAGAACUACAGAAAUGUAGUUGACGAGGAGGAGGUUUAUCGAAUUUUCGGCGGAUGCCUCCAAA

Experiments:
Conditions in all cases: with glucosamine-6-phosphate
[1] = variants of: B1; test: self-cleavage kobs at 40 uM GlcN6P; higher = faster cleavage; RNA array
Outline: (§1)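 Sequenced MiSeq chips were the platform: E. coli RNA polymerase transcribed barcoded ribozyme variants on them in situ, and a hybridised Cy3 probe tracked these at 37 °C. After glucosamine-6-phosphate (40 μM to 10 mM) in HEPES/KCl/Mg(OAc)2 buffer was flowed in, tiles were imaged over ~14 h. Signals normalised to baseline and to non-cleaving reference variants were reduced to per-tile medians and fit to one- or two-exponential decays to obtain kobs. kcat and KM were derived through weighted Michaelis–Menten fits across concentrations.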

[2] = variants of: B1; test: self-cleavage kobs at 10000 uM GlcN6P; higher = faster cleavage; RNA array
Outline: as §1

[3] = variants of: B1; test: self-cleavage kobs at 2500 uM GlcN6P; higher = faster cleavage; RNA array
Outline: as §1

[4] = variants of: B1; test: self-cleavage kobs at 160 uM GlcN6P; higher = faster cleavage; RNA array
Outline: as §1

[5] = variants of: B1; test: self-cleavage kobs at 640 uM GlcN6P; higher = faster cleavage; RNA array
Outline: as §1

AUAAACGCGCCAGAACUACAGAAAUGUAGUUGACGAGGAGGAGGUUUAACUAAUUUUCGGCGGAUGCCUCCAAA [A6C U49A G51U]
self-cleavage kobs at 40 uM GlcN6P [1]: < 1e-05 s⁻¹
self-cleavage kobs at 10000 uM GlcN6P [2]: < 1e-05 s⁻¹

AUAAAGGUGCCAGAACUACAGAAAUGUAGUUGACGAGGAGGAGGUUUAUCGAAUUUUCGGCGGAUGCCUCCAAA [A6G C8U]
self-cleavage kobs at 40 uM GlcN6P [1]: < 1e-05 s⁻¹
self-cleavage kobs at 2500 uM GlcN6P [3]: < 1e-05 s⁻¹
self-cleavage kobs at 10000 uM GlcN6P [2]: < 1e-05 s⁻¹

AUAAACGCGCCAGAACUACAGAAAUGUAGUCGACGAGGAGGAGGUUUAUCGAAUUUUCGGCGGAUGCCUCCAAA [A6C U31C]
self-cleavage kobs at 40 uM GlcN6P [1]: < 1e-05 s⁻¹
self-cleavage kobs at 160 uM GlcN6P [4]: < 1e-05 s⁻¹

AUAAACGCGCCAGAACUACAGAAAUGUAGUUGACGAGGAGGAGGUUUAUCGAAUUUGCGGCGGAUGCCUCCAAA [A6C U57G]
self-cleavage kobs at 40 uM GlcN6P [1]: < 1e-05 s⁻¹
self-cleavage kobs at 640 uM GlcN6P [5]: < 1e-05 s⁻¹

AUAAACGCGCCAGAACUACAGAAAUGUAGUCGACGAGGAGGAGGUUUAUCGAAUUUUCGGCGGAUGCGUCCAAA [A6C U31C C68G]
self-cleavage kobs at 40 uM GlcN6P [1]: < 1e-05 s⁻¹

AUAAAGGCGCCAGAUCUACAGAAAUGUAGUUGAAGAGGAGGAGGUUUAUCGAAUUUUCGGCGGAUGCCUCCAAA [A6G A15U C34A]
self-cleavage kobs at 40 uM GlcN6P [1]: < 1e-05 s⁻¹
self-cleavage kobs at 160 uM GlcN6P [4]: < 1e-05 s⁻¹
self-cleavage kobs at 640 uM GlcN6P [5]: < 1e-05 s⁻¹
self-cleavage kobs at 2500 uM GlcN6P [3]: < 1e-05 s⁻¹
self-cleavage kobs at 10000 uM GlcN6P [2]: < 1e-05 s⁻¹

AUAAAGGCGCCAGAACUACAGAAAUGUAGUUGACGAGGAGGAGGUUUUUCGAAUUUUCGGCGGAUGCCUCCAAA [A6G A48U]
self-cleavage kobs at 40 uM GlcN6P [1]: < 1e-05 s⁻¹
self-cleavage kobs at 160 uM GlcN6P [4]: < 1e-05 s⁻¹
self-cleavage kobs at 640 uM GlcN6P [5]: < 1e-05 s⁻¹
self-cleavage kobs at 2500 uM GlcN6P [3]: < 1e-05 s⁻¹
self-cleavage kobs at 10000 uM GlcN6P [2]: < 1e-05 s⁻¹

AUAAAGGCGCCAGACCUACAGAAAUGUAGUUGACAAGGAGGAGGUUUAUCGAAUUUUCGGCGGAUGCCUCCAAA [A6G A15C G35A]
self-cleavage kobs at 40 uM GlcN6P [1]: < 1e-05 s⁻¹
self-cleavage kobs at 10000 uM GlcN6P [2]: < 1e-05 s⁻¹

AUAAAGGCGCCAGAGCUACAGAAAUGUAGUUGACGAGGAGGAGGUUUAUCGAAUUUUCGGCGGAUUCCUUCAAA [A6G A15G G66U C70U]
self-cleavage kobs at 40 uM GlcN6P [1]: < 1e-05 s⁻¹

AUAAAGGCGCCAGAACUACAGAAAUGUAGUUGACGCGGAGGAGGUUUAUCGAAUUUUCGGCGAAUGCCUCCAAA [A6G A36C G63A]
self-cleavage kobs at 40 uM GlcN6P [1]: < 1e-05 s⁻¹
self-cleavage kobs at 10000 uM GlcN6P [2]: < 1e-05 s⁻¹

AUAAACGCGCCAGAACUACAGAAAUGUAGUUGACGAGGAGGAGGUUUAUCGAAUUUUCGGCAGAUCCCACCAAA [A6C G62A G66C U69A]
self-cleavage kobs at 40 uM GlcN6P [1]: < 1e-05 s⁻¹
self-cleavage kobs at 10000 uM GlcN6P [2]: < 1e-05 s⁻¹

AUAAACGCGCCAGAACUACAGAAAUGUAGUGAACGAGGAGUAGGUUUAUCGAAUUUUCGGCGGAUGCCUCCAAA [A6C U31G G32A G41U]
self-cleavage kobs at 40 uM GlcN6P [1]: < 1e-05 s⁻¹

AUAAACGCGCCAGAACUACAGAAAUGUAGGUGACGAGGAGGAGGUUUAUGGAAUUCUCGGCGGAUGCAUCCAAA [A6C U30G C50G U56C C68A]
self-cleavage kobs at 40 uM GlcN6P [1]: 7.1e-05 ± 2.5e-05 s⁻¹
self-cleavage kobs at 10000 uM GlcN6P [2]: 0.000356 ± 0.00016 s⁻¹

AUAAAGGGGCCAGAACUACAGAAAUGUAGUUGACGAGGAAGAGGUUUAUCGAAUUUUCGGCGGAUGCCUCCAAA [A6G C8G G40A]
self-cleavage kobs at 40 uM GlcN6P [1]: < 1e-05 s⁻¹
self-cleavage kobs at 10000 uM GlcN6P [2]: < 1e-05 s⁻¹

AUAAACGCGCCAGAACUACAGAAAUGUAGUUGACGAGGAGGAGGUGUAUCGAAUUUUCGGCGGAUGCCUCCAAA [A6C U46G]
self-cleavage kobs at 40 uM GlcN6P [1]: < 1e-05 s⁻¹
self-cleavage kobs at 160 uM GlcN6P [4]: < 1e-05 s⁻¹

AUAAACGCGCCAGAACUACAGAAAUGUAGUUGACGAGGAGGAGGUAUAUCGAAUUUUCGGCGGAUGCCUCCAAA [A6C U46A]
self-cleavage kobs at 40 uM GlcN6P [1]: < 1e-05 s⁻¹
self-cleavage kobs at 160 uM GlcN6P [4]: < 1e-05 s⁻¹
self-cleavage kobs at 640 uM GlcN6P [5]: < 1e-05 s⁻¹

AUAAAGGCGCCAGUACUACAGAAAUGUAGUUGACGAGGACGAGGUUUAUCGAAUUUUCGGCGGAUGGCUCCAAA [A6G A14U G40C C67G]
self-cleavage kobs at 40 uM GlcN6P [1]: < 1e-05 s⁻¹
self-cleavage kobs at 640 uM GlcN6P [5]: < 1e-05 s⁻¹

AUAAAGGUGCCAGAACUACAGAAAUGUAGUUGACGAGGAGGAGGUUUAUCGAAUUUCCGGCGGAUGUCUCCAAA [A6G C8U U57C C67U]
self-cleavage kobs at 40 uM GlcN6P [1]: < 1e-05 s⁻¹
self-cleavage kobs at 10000 uM GlcN6P [2]: < 1e-05 s⁻¹

AUAAAGGCGCCAGAACUACAGAAAUGUAGUUGACGAGGAGGAGGUUUAUCGAAUUUUCGGCGGCUGCCUCCAAA [A6G A64C]
self-cleavage kobs at 40 uM GlcN6P [1]: < 1e-05 s⁻¹
self-cleavage kobs at 160 uM GlcN6P [4]: < 1e-05 s⁻¹
self-cleavage kobs at 640 uM GlcN6P [5]: < 1e-05 s⁻¹
self-cleavage kobs at 10000 uM GlcN6P [2]: < 1e-05 s⁻¹

AUAAACGCGCCAGAACUACAGAAAUGUAGUUGACGAGGAGGAGGUUUAGCGAAUUUUCGGCGGAUGCCUCCAAA [A6C U49G]
self-cleavage kobs at 40 uM GlcN6P [1]: < 1e-05 s⁻¹
self-cleavage kobs at 640 uM GlcN6P [5]: < 1e-05 s⁻¹

AUAAAGGCGCCAGAACUACAGAAAUGUAGUUGACGAGGAGGGGGUUUAUAGAACUUUCGGCGGAUGCCUGCAAA [A6G A42G C50A U54C C70G]
self-cleavage kobs at 40 uM GlcN6P [1]: < 1e-05 s⁻¹
self-cleavage kobs at 160 uM GlcN6P [4]: < 1e-05 s⁻¹
self-cleavage kobs at 640 uM GlcN6P [5]: < 1e-05 s⁻¹
self-cleavage kobs at 2500 uM GlcN6P [3]: < 1e-05 s⁻¹
self-cleavage kobs at 10000 uM GlcN6P [2]: < 1e-05 s⁻¹

AUAAAGGAGCCAGAACUACAGAAAUGUAGUUGACGAGGAGGAGGUUUAUCGAAUUUUUGGCGGAUGCCUCCAAA [A6G C8A C58U]
self-cleavage kobs at 40 uM GlcN6P [1]: < 1e-05 s⁻¹
self-cleavage kobs at 10000 uM GlcN6P [2]: < 1e-05 s⁻¹

AUAAACGCGCCAGAACUACAGAAAUGUAGUCGACGAGGAGGAGGUUUAUCGAAUUUUCUGCGGAUGCCUCCAAA [A6C U31C G59U]
self-cleavage kobs at 40 uM GlcN6P [1]: < 1e-05 s⁻¹

AUAAAGGAGCCAGAACUACAGAAAUGUAGUUCACGAGGAGGAGGUUUAUCGAAUUUUCGGCGGAUGCCUCCAAA [A6G C8A G32C]
self-cleavage kobs at 40 uM GlcN6P [1]: < 1e-05 s⁻¹
self-cleavage kobs at 2500 uM GlcN6P [3]: < 1e-05 s⁻¹

AUAAACGCGCCAGAACUACAGAAAUGUAGUUGACGAGGAGGAGGUUUAUCGAAUUUUCGGCUGAUGCCUCCAAA [A6C G62U]
self-cleavage kobs at 40 uM GlcN6P [1]: < 1e-05 s⁻¹
self-cleavage kobs at 160 uM GlcN6P [4]: < 1e-05 s⁻¹
self-cleavage kobs at 2500 uM GlcN6P [3]: < 1e-05 s⁻¹
self-cleavage kobs at 10000 uM GlcN6P [2]: < 1e-05 s⁻¹

AUAAAGGCGCCAGUACUACAGAAAUGUAGUUGACGAGGAGGAGGUUUAUCGAAUUUUCGGCGGAGGCCUCCAAA [A6G A14U U65G]
self-cleavage kobs at 40 uM GlcN6P [1]: < 1e-05 s⁻¹

AUAAAGGCGCCAGAACUACAGAAAUGUAGUUGGCUAGGAGGAGGUUUAUCGAAUUUUCGGCGGAUGCGUUCAAA [A6G A33G G35U C68G C70U]
self-cleavage kobs at 40 uM GlcN6P [1]: 6.36e-05 ± 1.8e-05 s⁻¹
self-cleavage kobs at 10000 uM GlcN6P [2]: 0.000167 ± 3.1e-05 s⁻¹

AUAAAGGCGCCUGAACUACAGAAAUGUAGUUGACGAGGAGGAGGUUUAUCGAAUUUUCGGCGGAUACCUCCAAA [A6G A12U G66A]
self-cleavage kobs at 40 uM GlcN6P [1]: < 1e-05 s⁻¹
self-cleavage kobs at 2500 uM GlcN6P [3]: 0.000132 ± 3.5e-05 s⁻¹
self-cleavage kobs at 10000 uM GlcN6P [2]: 7.44e-05 ± 2.2e-05 s⁻¹

AUAAAGGCGCCAGACCUACAGAAAUGUAGUCGACGAGGAGGCGGUUUAUCGAAUUUUCGGCGGAUGCCUCCAAA [A6G A15C U31C A42C]
self-cleavage kobs at 40 uM GlcN6P [1]: < 1e-05 s⁻¹
self-cleavage kobs at 10000 uM GlcN6P [2]: < 1e-05 s⁻¹

AUAAAGGCGCCAGAACUACAGAAAUGUAGUUGUCGAGGAGGAGGUUUAUCGAUUUUUCGGCGGAUGCCUCCAAA [A6G A33U A53U]
self-cleavage kobs at 40 uM GlcN6P [1]: < 1e-05 s⁻¹
self-cleavage kobs at 10000 uM GlcN6P [2]: < 1e-05 s⁻¹

AUAAACGCGCCAGAACUACAGAAAUGUAGGUGACGAGGAGGAGGUUUAUCAAAUUUUCGGCGGAGGCCUCCAAA [A6C U30G G51A U65G]
self-cleavage kobs at 40 uM GlcN6P [1]: < 1e-05 s⁻¹
self-cleavage kobs at 10000 uM GlcN6P [2]: < 1e-05 s⁻¹

AUAAAGGCGCCCGAACUACAGAAAUGUAGUUGACAAGGAGUAGGUUUAUCGAAUUUUCGGCGGAUGCCUCAAAA [A6G A12C G35A G41U C71A]
self-cleavage kobs at 40 uM GlcN6P [1]: < 1e-05 s⁻¹

AUAAAGGCGCCAGAACUACAGAAAUGUAGUUGACGAGGAGGUGGUUUAUCGAAUUUUUGGCGGAUGCCUCCAAA [A6G A42U C58U]
self-cleavage kobs at 40 uM GlcN6P [1]: < 1e-05 s⁻¹
